Results reported in article PMC10925246 (bioRxiv, 2024).
Where two headings read alike, the source gives them in different places. Ends that are not written are not given here.

T1: recombinant PotH (E. coli) with C-terminal 10-His tag (E. coli, UniProt P31135 1-317)
T1 sequence (looked up): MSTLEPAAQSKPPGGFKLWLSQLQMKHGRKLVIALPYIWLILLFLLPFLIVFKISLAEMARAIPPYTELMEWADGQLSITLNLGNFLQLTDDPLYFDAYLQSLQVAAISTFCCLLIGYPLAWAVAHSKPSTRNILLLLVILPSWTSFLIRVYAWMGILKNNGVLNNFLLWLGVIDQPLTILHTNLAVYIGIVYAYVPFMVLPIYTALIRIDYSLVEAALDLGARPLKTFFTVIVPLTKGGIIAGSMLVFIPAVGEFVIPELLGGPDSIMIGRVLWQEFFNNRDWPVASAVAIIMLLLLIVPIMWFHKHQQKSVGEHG

B1: lacritin peptide N-104 (peptide)
peptide: Ac-AQKLLKKFSLLKPWA
B2: N-104:K107S (peptide, UniProt Q9GZZ8 124-138, looked up)
peptide: AQSLLKKFSLLKPWA
B3: N-104:K111S (peptide, UniProt Q9GZZ8 124-138, looked up)
peptide: AQKLLKSFSLLKPWA
B4: N-104:L109S (peptide, UniProt Q9GZZ8 124-138, looked up)
peptide: AQKLSKKFSLLKPWA
B5: N-104:W118S (peptide, UniProt Q9GZZ8 124-138, looked up)
peptide: AQKLLKKFSLLKPSA
B6: N-104:L108S (peptide, UniProt Q9GZZ8 124-138, looked up)
peptide: AQKSLKKFSLLKPWA
B7: N-104:F112S (peptide, UniProt Q9GZZ8 124-138, looked up)
peptide: AQKLLKKSSLLKPWA
B8: N-104:L115S (peptide, UniProt Q9GZZ8 124-138, looked up)
peptide: AQKLLKKFSLSKPWA
B9: N-104:K116S (peptide, UniProt Q9GZZ8 124-138, looked up)
peptide: AQKLLKKFSLLSPWA
B10: N-104:K110S (peptide, UniProt Q9GZZ8 124-138, looked up)
peptide: AQKLLSKFSLLKPWA
B11: N-104:L114S (peptide, UniProt Q9GZZ8 124-138, looked up)
peptide: AQKLLKKFSSLKPWA
B12: PotH outer loop 2 synthetic peptide (peptide)
peptide: Ac-WMGILKNNGVLNNFLLWLGVIDQPLTILHTN-NH2
B13: Cys(N)-N-104 immobilized on SulfoLink Coupling resin (peptide)
peptide: AQKLLKKFSLLKPWA
B14: N-104 L108S/L109S/F112S/L114S/L115S/W118S (peptide, UniProt Q9GZZ8 124-138, looked up)
peptide: AQKSSKKSSSSKPSA

Legend:
[1] = biological target: thrombin (F2) C-terminal peptide GKY20 (human); experiment: far-Western, overlay or dot blot
[2] = biological target: B13; experiment: pull-down
[3] = biological target: T1, recombinant PotH (E. coli) with …; experiment: pull-down
[4] = biological target: thrombin (F2) C-terminal peptide GKY20 (human); experiment: far-Western, overlay or dot blot; remark: listed apart in the source

| Binder | binding result [1] | other results |
| --- | --- | --- |
| B1 | binds |  |
| B2 | binds |  |
| B3 | binds |  |
| B4 | binds |  |
| B5 | binds |  |
| B6 | binds |  |
| B7 | binds |  |
| B8 | binds |  |
| B9 | binds |  |
| B10 | binds |  |
| B11 | binds |  |
| B12 |  | binding result [2]: binds |
| B13 |  | binding result [3]: binds |
| B14 |  | binding result [4]: binds |
